Assay results taken from publication PMC6736097 (Nucleic Acids Research, 2019).

B1: NTR1 split-YFP fusion for BiFC (NTR1-nYFP) (natural protein)
chain: not shown
B2: ILP1 split-YFP fusion for BiFC (ILP1-nYFP and ILP1-cYFP) (natural protein)
chain: MGSNRPKNFRRRGDDGGDEIDGKVATPSSKPTSTLSSSKPKTLSASAPKKKLLSFADDEEEEEDGAPRVTIKPKNGRDRVKSSSRLGVSGSSHRHSSTKERRPASSNVLPQAGSYSKEALLELQKNTRTLPYSRSSANAEPKVVLKGLIKPPQDHEQQSLKDVVKQVSDLDFDEEGEEEQHEDAFADQAAIIRAKKERMRQSRSAPAPDYISLDGGIVNHSAVEGVSDEDADFQGIFVGPRPQKDDKKGVFDFGDENPTAKETTTSSIYEDEDEEDKLWEEEQFKKGIGKRMDEGSHRTVTSNGIGVPLHSKQQTLPQQQPQMYAYHAGTPMPNVSVAPTIGPATSVDTLPMSQQAELAKKALKDNVKKLKESHAKTLSSLTKTDENLTASLMSITALESSLSAAGDKYVFMQKLRDFISVICDFMQNKGSLIEEIEDQMKELNEKHALSILERRIADNNDEMIELGAAVKAAMTVLNKHGSSSSVIAAATGAALAASTSIRQQMNQPVKLDEFGRDENLQKRREVEQRAAARQKRRARFENKRASAMEVDGPSLKIEGESSTDESDTETSAYKETRDSLLQCADKVFSDASEEYSQLSKVKARFERWKRDYSSTYRDAYMSLTVPSIFSPYVRLELLKWDPLHQDVDFFDMKWHGLLFDYGKPEDGDDFAPDDTDANLVPELVEKVAIPILHHQIVRCWDILSTRETRNAVAATSLVTNYVSASSEALAELFAAIRARLVEAIAAISVPTWDPLVLKAVPNTPQVAAYRFGTSVRLMRNICMWKDILALPVLENLALSDLLFGKVLPHVRSIASNIHDAVTRTERIVASLSGVWTGPSVTRTHSRPLQPLVDCTLTLRRILEKRLGSGLDDAETTGLARRLKRILVELHEHDHAREIVRTFNLKEAV

What was measured:
[1] = target: B2; assay: split reporter
PRP43b-cYFP = PRP43b-cYFP (Arabidopsis thaliana, UniProt O22899 1-729); assay: split reporter
Chain of PRP43b-cYFP (O22899 whole entry): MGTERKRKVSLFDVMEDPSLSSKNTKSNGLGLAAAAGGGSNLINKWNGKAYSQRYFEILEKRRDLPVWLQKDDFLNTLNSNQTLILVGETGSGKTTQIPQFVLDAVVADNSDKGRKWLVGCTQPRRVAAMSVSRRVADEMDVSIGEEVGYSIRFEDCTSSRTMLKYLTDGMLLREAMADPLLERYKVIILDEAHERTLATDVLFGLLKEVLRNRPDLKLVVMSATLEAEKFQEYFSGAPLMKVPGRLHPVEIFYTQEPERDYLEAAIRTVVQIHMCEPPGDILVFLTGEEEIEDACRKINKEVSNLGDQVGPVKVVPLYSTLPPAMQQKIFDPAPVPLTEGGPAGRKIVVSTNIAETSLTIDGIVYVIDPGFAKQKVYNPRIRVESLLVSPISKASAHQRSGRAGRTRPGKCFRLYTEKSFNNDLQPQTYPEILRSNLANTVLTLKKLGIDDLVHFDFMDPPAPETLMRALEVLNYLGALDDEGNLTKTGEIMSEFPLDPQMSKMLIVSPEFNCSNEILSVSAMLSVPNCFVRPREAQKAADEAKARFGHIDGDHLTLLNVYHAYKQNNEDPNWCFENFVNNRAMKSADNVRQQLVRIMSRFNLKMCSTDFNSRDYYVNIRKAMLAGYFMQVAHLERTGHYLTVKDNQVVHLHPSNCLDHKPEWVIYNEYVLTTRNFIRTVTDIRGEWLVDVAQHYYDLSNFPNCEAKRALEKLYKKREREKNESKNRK

| Binder | positive BiFC ratio (percent of protoplasts) [1] [%] | positive BiFC ratio (percent of protoplasts) (PRP43b-cYFP) [%] |
| --- | --- | --- |
| B1 | 41.4 | 14.7 |
| B2 | – | 1.4 |
